From patent US11945881B2, “Neoantigens expressed in ovarian cancer and their uses” (Janssen Biotech, Inc., priority 2020, dated 2024)

B1: LKQDVRSGGPGARQLRGGLLRQAAPPGRRTRPFPHRARLHTALPTARLPGGPAAASRPAFRAAPRESGASVPGPSASPG (peptide)
chain: LKQDVRSGGPGARQLRGGLLRQAAPPGRRTRPFPHRARLHTALPTARLPGGPAAASRPAFRAAPRESGASVPGPSASPG
notes: neoantigen, alternative splicing of IL17RC
B2: HFVRSQDKGMVWTPEPSALPRTPRRHPGLSLCSQWGGLRVGPPAARPGWSLAHVLRVTLLQFHPNPGKETQKKQRCPKEDPSRIWRA (peptide)
chain: HFVRSQDKGMVWTPEPSALPRTPRRHPGLSLCSQWGGLRVGPPAARPGWSLAHVLRVTLLQFHPNPGKETQKKQRCPKEDPSRIWRA
notes: neoantigen, alternative splicing of RUFY4
B3: RDLQCPKKTQTPQAQSRLESERKKNTLTWLVPTPWDWRQWSTAPSRGLVWPPPPVDYELWKSS (peptide)
chain: RDLQCPKKTQTPQAQSRLESERKKNTLTWLVPTPWDWRQWSTAPSRGLVWPPPPVDYELWKSS
notes: neoantigen, alternative splicing of LRRC75B
B4: HQYIVVQDIHTETQHSALGAQPADSIPPFLQHTLQHLACPSLELPGNEQARREKRRRDDAFSDSL (peptide)
chain: HQYIVVQDIHTETQHSALGAQPADSIPPFLQHTLQHLACPSLELPGNEQARREKRRRDDAFSDSL
notes: neoantigen, alternative splicing of SRGAP3
B5: ARLRELRQCGGGRGKRGQGWGVRDETITGRPAVLGSPFLSPALAPPSRLMGDLWDGQSAGWSPGSPASPFCGGW (peptide)
chain: ARLRELRQCGGGRGKRGQGWGVRDETITGRPAVLGSPFLSPALAPPSRLMGDLWDGQSAGWSPGSPASPFCGGW
notes: neoantigen, alternative splicing of HSF4

How the values were obtained:
CD4+ T cells = experiment: exogenous autologous normal donor restimulation assay, TNFα/IFNγ double positive CD4+ T cells by flow cytometry; format: cell-based, human; details: donor independent, peptide pool 10 μg/mL, healthy donors; for Fold change (CD4+) vs. DMSO: maximum CD4+ T-cell response (TNFα and IFNγ); for Frequency (TNFα + IFNγ + CD4 T cells): maximum CD4+ T-cell response
CD8+ T cells = experiment: exogenous autologous normal donor restimulation assay, TNFα/IFNγ double positive CD8+ T cells by flow cytometry; format: cell-based, human; details: for Fold change (CD8+) vs. DMSO: maximum CD8+ T-cell response (TNFα and IFNγ); for Fold change (CD8+) vs. DMSO / Frequency (TNFα + IFNγ + CD8 T cells): donor independent, peptide pool 10 μg/mL, healthy donors; for Frequency (TNFα + IFNγ + CD8 T cells): maximum CD8+ T-cell response; for Immunogenic (yes/no): positive if CD8+ and/or CD4+ double positive TNFα/IFNγ frequency >=3-fold over DMSO and at least 0.01%

Row | Molecule | Fold change (CD4+) vs. DMSO (CD4+ T cells) | Frequency (TNFα + IFNγ + CD4 T cells) (CD4+ T cells) | Fold change (CD8+) vs. DMSO (CD8+ T cells) | Frequency (TNFα + IFNγ + CD8 T cells) (CD8+ T cells) | Immunogenic (yes/no) (CD8+ T cells)
1 | WSQDLQEGFSAPSRISAWFGPP [AS17, neoantigen, alternative splicing of KRT8] | 29.97 fold | 0.41% | 169.53 fold | 0.79% | Yes
2 | YCKNDFFRSLPCHLL [AS16, neoantigen, alternative splicing of LHX1] | 5.43 fold | 0.011% | 2.88 fold | 0.062% | Yes
3 | YGNDQWLQMRKWRHRE [FUS13, neoantigen, gene fusion MFGE8->HAPLN3] | 3.35 fold | 0.12% | 5.12 fold | 0.11% | yes
4 | B1 | 10.73 fold | 0.12% | 25.75 fold | 0.36% | Yes
5 | B2 | 279.88 fold | 0.28% | 69.96 fold | 1.87% | Yes
6 | B3 | 10.84 fold | 0.047% | 143.98 fold | 1.28% | Yes
7 | B4 | 12.03 fold | 0.078% | 14.89 fold | 0.16% | Yes
8 | B5 | 6.63 fold | 0.043% | 66.2 fold | 0.62% | Yes
